How the values were obtained:
[1] = biological target: T1, Muc1 mucin bearing the CA6 sialoglycotope (DS6 antigen), as expressed by CA6-positive human tumour cell lines (human, UniProt P15941 24-1255, sialylated O-linked carbohydrate carrying the CA6 glycotope; sites not stated); assay: cell-based or functional assay
[2] = biological target: T1, Muc1 mucin bearing the CA6 …; assay: flow cytometry on HeLa cells (FIG. 28), apparent Kd, probably pM
[3] = biological target: T1, Muc1 mucin bearing the CA6 …; assay: flow cytometry competition; competitor 2 nM biotin-muDS6, streptavidin-DTAF; called IC50 in the legend of FIG. 19
Experimental: In the first set of experiments direct binding to a CA6-expressing cell line, KB, was measured.

Row | Binder | indirect cell viability assay on Caov-3 cells with anti-mouse IgG (H+L) DM1 conjugate, IC50 [1] [nM] | Kd [2] [nM] | EC50 [3] [nM]
1 | murine anti-CA6 monoclonal antibody DS6 (antibody, mouse IgG1, V domains shown, Whole murine monoclonal antibody from the hybridoma (ATCC PTA-4449); They were cloned with murine IgG1 and kappa primers; also called muDS6; the DS6 antibody) VH: QAYLQQSGAELVRSGASVKMSCKASGYTFTSYNMHWVKQTPGQGLEWIGYIYPGNGATNYNQKFKGKATLTADPSSSTAYMQISSLTSEDSAVYFCARGDSVPFAYWGQGTLVTVSA VL: QIVLTQSPAIMSASPGEKVTITCSAHSSVSFMHWFQQKPGTSPKLWIYSTSSLASGVPARFGGSGSGTSYSLTISRMEAEDAATYYCQQRSSFPLTFGAGTKLELKR | 425000 | 620000 | 1.9
2 | chimeric DS6 antibody (antibody, V domains shown, Expressed in CHO cells; also called chDS6) VH: QAYLQQSGAELVRSGASVKMSCKASGYTFTSYNMHWVKQTPGQGLEWIGYIYPGNGATNYNQKFKGKATLTADPSSSTAYMQISSLTSEDSAVYFCARGDSVPFAYWGQGTLVTVSA VL: QIVLTQSPAIMSASPGEKVTITCSAHSSVSFMHWFQQKPGTSPKLWIYSTSSLASGVPARFGGSGSGTSYSLTISRMEAEDAATYYCQQRSSFPLTFGAGTKLELKR | – | – | 1.7
3 | humanized DS6 antibody version 1.01 (antibody, V domains shown, also called huDS6v1.01; huDS6 v1.01) VH: QAQLVQSGAEVVKPGASVKMSCKASGYTFTSYNMHWVKQTPGQGLEWIGYIYPGNGATNYNQKFQGKATLTADTSSSTAYMQISSLTSEDSAVYFCARGDSVPFAYWGQGTLVTVSA VL: EIVLTQSPATMSASPGERVTITCSAHSSVSFMHWFQQKPGTSPKLWIYSTSSLASGVPARFGGSGSGTSYSLTISSMEAEDAATYYCQQRSSFPLTFGAGTKLELKR | – | – | 3
4 | humanized DS6 antibody version 1.21 (antibody, V domains shown, also called huDS6v1.21; huDS6 v1.21) VH: QAQLVQSGAEVVKPGASVKMSCKASGYTFTSYNMHWVKQTPGQGLEWIGYIYPGNGATNYNQKFQGKATLTADPSSSTAYMQISSLTSEDSAVYFCARGDSVPFAYWGQGTLVTVSA VL: EIVLTQSPATMSASPGERVTITCSAHSSVSFMHWFQQKPGTSPKLWIYSTSSLASGVPARFGGSGSGTSYSLTISSMEAEDAATYYCQQRSSFPLTFGAGTKLELKR | – | – | 1.9
